Laboratory results taken from article PMC11273223 (Glycobiology, 2024).

Columns and labels:
TcCGT1 = target: T1, TcCGT1 (Trollius chinensis, UniProt A0A4Y5RXX8); assay: HPLC end-point turnover to O- and C-glucosides; assay type: biochemical; settings: 50 μM aloesone, 200 μM UDP-Glc, 50 mM HEPES, pH 7.4, 30 °C, overnight
T1 sequence (A0A4Y5RXX8 2-483): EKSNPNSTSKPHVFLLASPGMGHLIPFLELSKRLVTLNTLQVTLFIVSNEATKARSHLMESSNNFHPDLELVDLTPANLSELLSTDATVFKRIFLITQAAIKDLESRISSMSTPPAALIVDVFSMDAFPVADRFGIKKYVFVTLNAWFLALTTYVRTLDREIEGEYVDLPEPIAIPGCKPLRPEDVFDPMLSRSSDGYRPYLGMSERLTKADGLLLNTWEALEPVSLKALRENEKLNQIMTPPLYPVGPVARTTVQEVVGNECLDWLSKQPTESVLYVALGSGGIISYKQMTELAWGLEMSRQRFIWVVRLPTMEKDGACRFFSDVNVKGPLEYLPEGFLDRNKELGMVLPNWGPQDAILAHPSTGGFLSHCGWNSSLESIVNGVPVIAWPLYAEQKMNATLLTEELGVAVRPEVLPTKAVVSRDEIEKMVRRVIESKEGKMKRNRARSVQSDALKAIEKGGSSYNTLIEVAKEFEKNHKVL

[1] = substrate: CC(=O)Cc1cc(=O)c2c(C)cc(O)cc2o1; assay: HPLC initial rates of O-glucoside formation, Michaelis-Menten fit; assay type: biochemical, Arabidopsis thaliana; settings: 0.8 mM UDP-Glc, 50 mM HEPES, 50 mM NaCl, pH 7.4

CC(=O)Cc1cc(=O)c2c(C)cc(O)cc2o1 [aloesone, 2-acetonyl-7-hydroxy-5-methylchromone]
HPLC end-point turnover to O- and C-glucosides (TcCGT1): both C-and O-glucosides were detected in the reaction with TcCGT1

B1: UGT71C1 (Arabidopsis thaliana) (protein)
chain: GKQEDAELVIIPFPFSGHILATIELAKRLISQDNPRIHTITILYWGLPFIPQADTIAFLRSLVKNEPRIRLVTLPEVQDPPPMELFVEFAESYILEYVKKMVPIIREALSTLLSSRDESGSVRVAGLVLDFFCVPMIDVGNEFNLPSYIFLTCSAGFLGMMKYLPERHREIKSEFNRSFNEELNLIPGYVNSVPTKVLPSGLFMKETYEPWVELAERFPEAKGILVNSYTALEPNGFKYFDRCPDNYPTIYPIGPILCSNDRPNLDSSERDRIITWLDDQPESSVVFLCFGSLKNLSATQINEIAQALEIVDCKFIWSFRTNPKEYASPYEALPHGFMDRVMDQGIVCGWAPQVEILAHKAVGGFVSHCGWNSILESLGFGVPIATWPMYAEQQLNAFTMVKELGLALEMRLDYVSEDGDIVKADEIAGTVRSLMDGVDVPKSKVKEIAEAGKEAVDGGSSFLAVKRFIGDLIDGVSISK
Km [1]: 50.54 ± 7.29 µM | kcat [1]: 0.27 ± 0.01 s⁻¹ | kcat/Km [1]: 5000 M⁻¹ s⁻¹
